The results in this text go back to patent US20110093964A1 (COMMISSARIAT A L ENERGIE ATOMIQUE, published 2011).

This test addresses native bovine brain calmodulin (bovine, UniProt P62157 2-149). In words: tryptophan fluorescence of 5 uM MLCKp (excitation 280 nm) in 10 mM MES pH 6.5, one equivalent of calmodulin, no metals.

B1: MLCKp peptide, 17 residues, derived from the calmodulin-binding domain of a rabbit muscle myosin light chain kinase (CALBIOCHEM) (peptide)
peptide: Ac-RRKWQKTGHAVRAIGRL-NH2
notes: Its tryptophan is the fluorescent probe of the assay; also called calmodulin ligand peptide; the ligand
As to B1, the binding result was “binds”.
